Data published in publication PMC9573856 (2022).

Target: T1, 3 × FLAG-aPKC (atypical protein kinase C subtype iota, PKCι), wild type, full length (Homo sapiens (Human), UniProt P41743)
T1 chain: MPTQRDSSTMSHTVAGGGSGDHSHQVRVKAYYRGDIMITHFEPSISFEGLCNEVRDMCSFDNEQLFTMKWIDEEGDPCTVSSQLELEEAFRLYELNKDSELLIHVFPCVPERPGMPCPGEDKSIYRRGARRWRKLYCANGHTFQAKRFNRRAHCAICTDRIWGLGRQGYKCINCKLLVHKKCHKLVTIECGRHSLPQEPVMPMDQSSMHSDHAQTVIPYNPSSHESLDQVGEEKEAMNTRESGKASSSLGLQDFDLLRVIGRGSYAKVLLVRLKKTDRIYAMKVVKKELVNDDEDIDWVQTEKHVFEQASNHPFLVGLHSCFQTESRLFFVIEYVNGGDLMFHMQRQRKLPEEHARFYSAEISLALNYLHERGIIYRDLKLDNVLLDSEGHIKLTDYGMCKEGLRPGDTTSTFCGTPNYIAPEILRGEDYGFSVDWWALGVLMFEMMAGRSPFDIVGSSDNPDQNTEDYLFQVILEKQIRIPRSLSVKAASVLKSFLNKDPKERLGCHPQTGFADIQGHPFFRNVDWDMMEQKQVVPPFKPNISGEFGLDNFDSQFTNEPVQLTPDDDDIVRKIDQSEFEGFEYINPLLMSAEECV
Experiment: co-expression, FLAG co-purification, SEC and glycerol gradient

- binding result: binds
B1: PAR6 (PAR6α), untagged, full length (protein)
chain: MARPQRTPARSPDSIVEVKSKFDAEFRRFALPRASVSGFQEFSRLLRAVHQIPGLDVLLGYTDAHGDLLPLTNDDSLHRALASGPPPLRLLVQKREADSSGLAFASNSLQRRKKGLLLRPVAPLRTRPPLLISLPQDFRQVSSVIDVDLLPETHRRVRLHKHGSDRPLGFYIRDGMSVRVAPQGLERVPGIFISRLVRGGLAESTGLLAVSDEILEVNGIEVAGKTLDQVTDMMVANSHNLIVTVKPANQRNNVVRGASGRLTGPPSAGPGPAEPDSDDDSSDLVIENRQPPSSNGLSQGPPCWDLHPGCRHPGTRSSLPSLDDQEQASSGWGSRIRGDGSGFSL
